± gives the standard error. For part of these data: Variants at the floor of the assay were thinned out.
B1: glmS ribozyme (parent)
chain: AUAAAAGCGCCAGAACUACAGAAAUGUAGUUGACGAGGAGGAGGUUUAUCGAAUUUUCGGCGGAUGCCUCCAAA

Tests used:
Conditions in all cases: with glucosamine-6-phosphate
[1] = variants of: B1; assay: kcat; higher = faster cleavage; RNA array
In short: (§1)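 Tiles bearing barcoded ribozyme variants, transcribed in situ by E. coli RNA polymerase on sequenced MiSeq chips, were imaged over ~14 h at 37 °C using a hybridised Cy3 probe. Glucosamine-6-phosphate was supplied at 40 μM to 10 mM in HEPES/KCl/Mg(OAc)2 buffer. kobs came from one- or two-exponential decay fits to normalised per-tile medians, and weighted Michaelis–Menten fits then provided kcat and KM.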

[2] = variants of: B1; assay: KM; higher = weaker cofactor use; RNA array
In short: as §1

[3] = variants of: B1; assay: self-cleavage kobs at 40 uM GlcN6P; higher = faster cleavage; RNA array
In short: as §1

[4] = variants of: B1; assay: self-cleavage kobs at 160 uM GlcN6P; higher = faster cleavage; RNA array
In short: as §1

[5] = variants of: B1; assay: self-cleavage kobs at 640 uM GlcN6P; higher = faster cleavage; RNA array
In short: as §1

[6] = variants of: B1; assay: self-cleavage kobs at 2500 uM GlcN6P; higher = faster cleavage; RNA array
In short: as §1

[7] = variants of: B1; assay: self-cleavage kobs at 10000 uM GlcN6P; higher = faster cleavage; RNA array
In short: as §1

Variant | kcat [1] [s⁻¹] | KM [2] [mM] | self-cleavage kobs at 40 uM GlcN6P [3] [s⁻¹] | self-cleavage kobs at 160 uM GlcN6P [4] [s⁻¹] | self-cleavage kobs at 640 uM GlcN6P [5] [s⁻¹] | self-cleavage kobs at 2500 uM GlcN6P [6] [s⁻¹] | self-cleavage kobs at 10000 uM GlcN6P [7] [s⁻¹]
A12C A39C | 0.000611 ± 4.3e-05 | 2.06 ± 0.26 | 1.91e-05 ± 9.4e-06 | 3.75e-05 ± 7.9e-06 | 0.000149 ± 1.2e-05 | 0.000343 ± 3e-05 | 0.000499 ± 4.2e-05
A12C U56A | 0.0197 ± 0.004 | 4.98 ± 1.4 | 0.00021 ± 2.5e-05 | 0.000528 ± 7.5e-05 | 0.00217 ± 0.00031 | 0.0059 ± 0.00083 | 0.0135 ± 0.0011
C11U U30G | 0.00224 ± 0.00076 |  | 0.0001 ± 1.4e-05 | 0.00018 ± 2.9e-05 | 0.000444 ± 7.4e-05 | 0.00185 ± 0.00033 | 0.00194 ± 0.00021
A12G C70U | 0.00188 ± 0.00036 | 4.46 ± 1.4 | 1.71e-05 ± 6.8e-06 | 7.66e-05 ± 6.8e-06 | 0.00025 ± 2.2e-05 | 0.00055 ± 4.3e-05 | 0.00139 ± 7.5e-05
A12G U49G | 0.00103 ± 0.00035 |  |  |  |  |  | 6.93e-05 ± 1.7e-05
A12G A14U | 0.000731 ± 0.0002 | 5.7 ± 2.2 |  |  | 8.27e-05 ± 8e-06 | 0.000195 ± 1.9e-05 | 0.000524 ± 6.4e-05
C11U C68U | 0.000418 ± 5.2e-05 | 1.07 ± 0.29 |  | 6.59e-05 ± 1.1e-05 | 0.000135 ± 1.7e-05 | 0.000329 ± 3.1e-05 | 0.00036 ± 3.9e-05
G13A U57A | 5.51e-05 ± 4.2e-06 | 0.37 ± 0.13 |  |  |  | 4.76e-05 ± 1.5e-05 | 
A12U A42U | 0.000531 ± 7.4e-05 | 1.24 ± 0.33 |  | 5.09e-05 ± 7.4e-06 | 0.000198 ± 1.9e-05 | 0.000402 ± 3.2e-05 | 0.000411 ± 4.6e-05
A12C U31C | 0.00286 ± 0.00052 | 5.11 ± 1.3 | 3.7e-05 ± 1.5e-05 | 8.05e-05 ± 1.6e-05 | 0.000348 ± 6.1e-05 | 0.000876 ± 0.00014 | 0.00195 ± 0.0003
A12C A33C | 0.000196 ± 1.6e-05 | 2.86 ± 0.54 |  |  | 3.98e-05 ± 9.4e-06 | 8.11e-05 ± 1.8e-05 | 0.000156 ± 1.8e-05
A12C A33U | 0.000132 ± 1.7e-05 | 3.33 ± 1.2 |  |  |  | 6.22e-05 ± 7.4e-06 | 9.81e-05 ± 6.4e-06
A12C U30G | 0.00614 ± 0.0015 | 5.24 ± 1.8 | 6.93e-05 ± 1.4e-05 | 0.000166 ± 3.1e-05 | 0.000671 ± 0.00015 | 0.00164 ± 0.00034 | 0.00422 ± 0.00051
